In PMC7047192 (EBioMedicine, 2020):

Molecular target: Flag-EGFR purified from 293T cells (UniProt P00533 25-1210)
Test: co-IP

- binding result: binds
B1: His-CDC34 (enzyme)
chain: MARPLVPSSQKALLLELKGLQEEPVEGFRVTLVDEGDLYNWEVAIFGPPNTYYEGGYFKARLKFPIDYPYSPPAFRFLTKMWHPNIYETGDVCISILHPPVDDPQSGELPSERWNPTQNVRTILLSVISLLNEPNTFSPANVDASVMYRKWKESKGKDREYTDIIRKQVLGTKVDAERDGVKVPTTLAEYCVKTKAPAPDEGSDLFYDDYYEDGEVEEEADSCFGDDEDDSGTEES
